This note sets out measurements from US20140087995A1 (published 2014).

Numbered stars: 1 amine (or outer) side, 2 acyl side, 3 side chain; on linkers, the order of the positions; unused ones are H or OH. Bridge positions count the residues as written; N and C are the ends. Side chains are listed from the residue outwards. Ends that are not written are not given here. * marks the point of attachment. C20 diacid = O=C(O)CCCCCCCCCCCCCCCCCCC(=O)*; γGlu = O=C(O)[C@H](CCC(=O)[*:2])N[*:1]; AEEA = NCCOCCOCC(=O)O

T1: human calcitonin receptor (human, UniProt P30988 25-474)
T1 construct: whole, on cells; also called hCTR; hCT
T1 sequence (looked up): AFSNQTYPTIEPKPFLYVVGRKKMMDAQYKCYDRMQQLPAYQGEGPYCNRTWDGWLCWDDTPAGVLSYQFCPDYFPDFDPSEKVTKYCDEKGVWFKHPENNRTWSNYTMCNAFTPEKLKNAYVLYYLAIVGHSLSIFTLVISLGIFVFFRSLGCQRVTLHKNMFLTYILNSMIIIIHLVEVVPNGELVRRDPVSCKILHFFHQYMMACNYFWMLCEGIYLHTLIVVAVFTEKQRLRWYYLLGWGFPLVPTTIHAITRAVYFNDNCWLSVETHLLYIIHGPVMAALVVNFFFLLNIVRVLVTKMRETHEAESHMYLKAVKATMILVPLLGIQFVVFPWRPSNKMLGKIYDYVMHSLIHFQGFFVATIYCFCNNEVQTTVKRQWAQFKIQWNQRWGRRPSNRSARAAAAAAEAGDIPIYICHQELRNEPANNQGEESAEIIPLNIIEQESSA

B1: N^ε1-[2-[2-[2-[[2-[2-[2-[[(4S)-4-carboxy-4-(19-carboxynonadecanoylamino)butanoyl]amino]ethoxy]ethoxy]acetyl]amino]ethoxy]ethoxy]acetyl]-[Arg17,Pro21,Pro27,Pro31 … (peptide)
peptide: K([AEEA-AEEA-γGlu-C20 diacid])CNTATCATQRLANFLRHSSPNFGAIPSSTPVGSNTY-NH2
modifications: disulfide 2-7; N-terminus assumed
SMILES: CC[C@H](C)[C@H](NC(=O)[C@H](C)NC(=O)CNC(=O)[C@H](Cc1ccccc1)NC(=O)[C@H](CC(N)=O)NC(=O)[C@@H]1CCCN1C(=O)[C@H](CO)NC(=O)[C@H](CO)NC(=O)[C@H](Cc1c[nH]cn1)NC(=O)[C@H](CCCNC(=N)N)NC(=O)[C@H](CC(C)C)NC(=O)[C@H](Cc1ccccc1)NC(=O)[C@H](CC(N)=O)NC(=O)[C@H](C)NC(=O)[C@H](CC(C)C)NC(=O)[C@H](CCCNC(=N)N)NC(=O)[C@H](CCC(N)=O)NC(=O)[C@@H](NC(=O)[C@H](C)NC(=O)[C@@H]1CSSC[C@H](NC(=O)[C@@H](N)CCCCNC(=O)COCCOCCNC(=O)COCCOCCNC(=O)CC[C@H](NC(=O)CCCCCCCCCCCCCCCCCCC(=O)O)C(=O)O)C(=O)N[C@@H](CC(N)=O)C(=O)N[C@@H]([C@@H](C)O)C(=O)N[C@@H](C)C(=O)N[C@@H]([C@@H](C)O)C(=O)N1)[C@@H](C)O)C(=O)N1CCC[C@H]1C(=O)N[C@@H](CO)C(=O)N[C@@H](CO)C(=O)N[C@H](C(=O)N1CCC[C@H]1C(=O)N[C@H](C(=O)NCC(=O)N[C@@H](CO)C(=O)N[C@@H](CC(N)=O)C(=O)N[C@H](C(=O)N[C@@H](Cc1ccc(O)cc1)C(N)=O)[C@@H](C)O)C(C)C)[C@@H](C)O
notes: also called compound 96
B2: N^ε1-[2-[2-[2-[[2-[2-[2-[[(4S)-4-carboxy-4-(19-carboxynonadecanoylamino)butanoyl]amino]ethoxy]ethoxy]acetyl]amino]ethoxy]ethoxy]acetyl]-[Arg17,Pro21,Pro27,Pro34 … (peptide)
peptide: K([AEEA-AEEA-γGlu-C20 diacid])CNTATCATQRLANFLRHSSPNFGAIPSSTNVGPNTY-NH2
modifications: disulfide 2-7; N-terminus assumed
SMILES: CC[C@H](C)[C@H](NC(=O)[C@H](C)NC(=O)CNC(=O)[C@H](Cc1ccccc1)NC(=O)[C@H](CC(N)=O)NC(=O)[C@@H]1CCCN1C(=O)[C@H](CO)NC(=O)[C@H](CO)NC(=O)[C@H](Cc1c[nH]cn1)NC(=O)[C@H](CCCNC(=N)N)NC(=O)[C@H](CC(C)C)NC(=O)[C@H](Cc1ccccc1)NC(=O)[C@H](CC(N)=O)NC(=O)[C@H](C)NC(=O)[C@H](CC(C)C)NC(=O)[C@H](CCCNC(=N)N)NC(=O)[C@H](CCC(N)=O)NC(=O)[C@@H](NC(=O)[C@H](C)NC(=O)[C@@H]1CSSC[C@H](NC(=O)[C@@H](N)CCCCNC(=O)COCCOCCNC(=O)COCCOCCNC(=O)CC[C@H](NC(=O)CCCCCCCCCCCCCCCCCCC(=O)O)C(=O)O)C(=O)N[C@@H](CC(N)=O)C(=O)N[C@@H]([C@@H](C)O)C(=O)N[C@@H](C)C(=O)N[C@@H]([C@@H](C)O)C(=O)N1)[C@@H](C)O)C(=O)N1CCC[C@H]1C(=O)N[C@@H](CO)C(=O)N[C@@H](CO)C(=O)N[C@H](C(=O)N[C@@H](CC(N)=O)C(=O)N[C@H](C(=O)NCC(=O)N1CCC[C@H]1C(=O)N[C@@H](CC(N)=O)C(=O)N[C@H](C(=O)N[C@@H](Cc1ccc(O)cc1)C(N)=O)[C@@H](C)O)C(C)C)[C@@H](C)O
notes: also called compound 98
B3: N^ε1-[2-[2-[2-[[(4S)-4-carboxy-4-(19-carboxynonadecanoylamino)butanoyl]amino]ethoxy]ethoxy]acetyl]-[Arg14,Arg17,Pro21,Pro27]-h-amylin (peptide)
peptide: K([AEEA-γGlu-C20 diacid])CNTATCATQRLARFLRHSSPNFGAIPSSTNVGSNTY-NH2
modifications: disulfide 2-7; N-terminus assumed
SMILES: CC[C@H](C)[C@H](NC(=O)[C@H](C)NC(=O)CNC(=O)[C@H](Cc1ccccc1)NC(=O)[C@H](CC(N)=O)NC(=O)[C@@H]1CCCN1C(=O)[C@H](CO)NC(=O)[C@H](CO)NC(=O)[C@H](Cc1c[nH]cn1)NC(=O)[C@H](CCCNC(=N)N)NC(=O)[C@H](CC(C)C)NC(=O)[C@H](Cc1ccccc1)NC(=O)[C@H](CCCNC(=N)N)NC(=O)[C@H](C)NC(=O)[C@H](CC(C)C)NC(=O)[C@H](CCCNC(=N)N)NC(=O)[C@H](CCC(N)=O)NC(=O)[C@@H](NC(=O)[C@H](C)NC(=O)[C@@H]1CSSC[C@H](NC(=O)[C@@H](N)CCCCNC(=O)COCCOCCNC(=O)CC[C@H](NC(=O)CCCCCCCCCCCCCCCCCCC(=O)O)C(=O)O)C(=O)N[C@@H](CC(N)=O)C(=O)N[C@@H]([C@@H](C)O)C(=O)N[C@@H](C)C(=O)N[C@@H]([C@@H](C)O)C(=O)N1)[C@@H](C)O)C(=O)N1CCC[C@H]1C(=O)N[C@@H](CO)C(=O)N[C@@H](CO)C(=O)N[C@H](C(=O)N[C@@H](CC(N)=O)C(=O)N[C@H](C(=O)NCC(=O)N[C@@H](CO)C(=O)N[C@@H](CC(N)=O)C(=O)N[C@H](C(=O)N[C@@H](Cc1ccc(O)cc1)C(N)=O)[C@@H](C)O)C(C)C)[C@@H](C)O
notes: also called compound 82
B4: N^ε1-[2-[2-[2-[[(4S)-4-carboxy-4-(19-carboxynonadecanoylamino)butanoyl]amino]ethoxy]ethoxy]acetyl]-[Ala14,Arg17,Pro21,Pro27,Pro31]-h-amylin (peptide)
peptide: K([AEEA-γGlu-C20 diacid])CNTATCATQRLAAFLRHSSPNFGAIPSSTPVGSNTY-NH2
modifications: disulfide 2-7; N-terminus assumed
SMILES: CC[C@H](C)[C@H](NC(=O)[C@H](C)NC(=O)CNC(=O)[C@H](Cc1ccccc1)NC(=O)[C@H](CC(N)=O)NC(=O)[C@@H]1CCCN1C(=O)[C@H](CO)NC(=O)[C@H](CO)NC(=O)[C@H](Cc1c[nH]cn1)NC(=O)[C@H](CCCNC(=N)N)NC(=O)[C@H](CC(C)C)NC(=O)[C@H](Cc1ccccc1)NC(=O)[C@H](C)NC(=O)[C@H](C)NC(=O)[C@H](CC(C)C)NC(=O)[C@H](CCCNC(=N)N)NC(=O)[C@H](CCC(N)=O)NC(=O)[C@@H](NC(=O)[C@H](C)NC(=O)[C@@H]1CSSC[C@H](NC(=O)[C@@H](N)CCCCNC(=O)COCCOCCNC(=O)CC[C@H](NC(=O)CCCCCCCCCCCCCCCCCCC(=O)O)C(=O)O)C(=O)N[C@@H](CC(N)=O)C(=O)N[C@@H]([C@@H](C)O)C(=O)N[C@@H](C)C(=O)N[C@@H]([C@@H](C)O)C(=O)N1)[C@@H](C)O)C(=O)N1CCC[C@H]1C(=O)N[C@@H](CO)C(=O)N[C@@H](CO)C(=O)N[C@H](C(=O)N1CCC[C@H]1C(=O)N[C@H](C(=O)NCC(=O)N[C@@H](CO)C(=O)N[C@@H](CC(N)=O)C(=O)N[C@H](C(=O)N[C@@H](Cc1ccc(O)cc1)C(N)=O)[C@@H](C)O)C(C)C)[C@@H](C)O
notes: also called compound 72

In one assay the target is T1, human calcitonin receptor. The assay is described as follows: ratio of IC50 at human calcitonin receptor to IC50 at human amylin receptor (SPA competition assays). The protocol:
The resulting pellet was resuspended, homogenized and centrifuged (20.000 rpm, 15 min) in a buffer containing 20 mM Na-HEPES and 0.1 mM EDTA (pH 7.4, buffer 2). The resulting pellet was resuspended in buffer 2 and protein concentration was measured (BCA protein Assay, Pierce). The homogenate was kept cold during the whole procedure. The membranes were kept at −80° C. until use. The assay was performed in a 384 well Optiplate (PerkinElmer) in a total volume of 40 ul. Membranes were mixed with SPA beads. Final concentration of membranes 35 ng/μL final and SPA beads was 0.05 mg/well. Test-compounds were dissolved in DMSO and further diluted in assay buffer (50 mM Hepes, pH 7.4, 1 mM CaCl2, 5 mM MgCl₂, 0.1% OA and 0.02% Tween20). […] The final mixture was incubated with shaking at 400 rpm for 120 min at 25° C. prior to centrifugation (1500 rpm, 10 min). Samples were analyzed on TopCounter™ (Packard). The IC₅₀ was calculated using (one site binding competition analysis) GraphPad Prism5 as a measure of receptor affinity.
Membranes were prepared in the following way; the cells were rinsed with PBS and incubated with Versene for approximately 5 min before harvesting. The cells were flushed with PBS and the cell-suspension was centrifuged for 5 min at 1000 rpm. Cells were homogenized (Ultrathurrax) in a buffer containing 20 mM Na-HEPES and 10 mM EDTA (pH 7.4) and centrifuged at 20.000 rpm for 15 min. The resulting pellet was resuspended, homogenized and centrifuged (20.000 rpm, 15 min) in a buffer containing 20 mM Na-HEPES and 0.1 mM EDTA (pH 7.4, buffer 2). The resulting pellet was resuspended in buffer 2 and protein concentration was measured (BCA protein Assay, Pierce). The homogenate was kept cold during the whole procedure. The membranes were kept at −80° C. until use. Assay was performed in a 384 well Optiplate (PerkinElmer) in a total volume of 40 ul. Membranes were mixed with SPA beads.
As to B1, the “Ratio hCT/hAmylin binding” value stood at 79.6.

As for B2, the “Ratio hCT/hAmylin binding” value is 74.1.

As to B3, the “Ratio hCT/hAmylin binding” value was determined as 140.

As to B4, the “Ratio hCT/hAmylin binding” value came out at 247.

For the next assay, the target named is T1, human calcitonin receptor. The assay can be described thus: SPA radioligand competition (125I-calcitonin), membranes of BHK cells with human calcitonin receptor. As to the method:
Membranes were prepared in the following way; the cells were rinsed with PBS and incubated with Versene for approximately 5 min before harvesting. The cells were flushed with PBS and the cell-suspension was centrifuged for 5 min at 1000 rpm. Cells were homogenized (Ultrathurrax) in a buffer containing 20 mM Na-HEPES and 10 mM EDTA (pH 7.4) and centrifuged at 20.000 rpm for 15 min. The resulting pellet was resuspended, homogenized and centrifuged (20.000 rpm, 15 min) in a buffer containing 20 mM Na-HEPES and 0.1 mM EDTA (pH 7.4, buffer 2). The resulting pellet was resuspended in buffer 2 and protein concentration was measured (BCA protein Assay, Pierce). The homogenate was kept cold during the whole procedure. The membranes were kept at −80° C. until use. Assay was performed in a 384 well Optiplate (PerkinElmer) in a total volume of 40 ul. Membranes were mixed with SPA beads. Final concentration of membranes 35 ng/μL final and Final concentration of SPA beads was 0.05 mg/well. Test-compounds were dissolved in DMSO and further diluted in assay buffer (50 mM Hepes, pH 7.4, 1 mM CaCl2, 5 mM MgCl₂, 0.1% OA and 0.02% Tween20). […] The final mixture was incubated for 120 min with shaking at 400 rpm at 25° C. prior to centrifugation (1500 rpm, 10 min). Samples were analyzed on TopCounter™ (Packard). The […] was calculated using (one site binding competition analysis) GraphPad Prism5 as a measure of receptor affinity.
(Loss of bound radioactivity is the signal in a displacement assay; it reports binding, not function.)
Usually IC50 stands for the concentration at which inhibition is half-maximal. For B1, the IC50 was 13.2 nM.

With B2, the IC50 amounted to 6.74 nM.

As for B3, the IC50 was found to be 88.8 nM.

Regarding B4, the IC50 was found to be 42.4 nM.
